Test results reported in article PMC10204968.

Target: Hfq (His6-Hfq) (Histophilus somni strain 2336) (UniProt B0UTF5)
Assay: EMSA
Conditions: 10 mM Tris-HCl pH 7.4, 6% glycerol, 50 ug/ml BSA, 0.75 ug baker's yeast tRNA, 200 ng sRNA, 15 ul, room temperature 30 min; 6% native PAGE, 0.5x TBE, GelGreen …

Sequence of Hfq (His6-Hfq) (Histophilus somni strain 2336) (B0UTF5 whole entry): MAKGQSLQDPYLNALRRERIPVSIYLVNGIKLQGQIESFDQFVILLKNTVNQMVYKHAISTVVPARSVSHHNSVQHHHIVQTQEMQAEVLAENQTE

Sequence | binding
GGGCGCUGGCAGGCUAAUGACUAAUAAGAUGAUAACUAGGAUAAUGUAUUUAAACAUUGUGUUAUCCUCUUCAAAGUUGGGUGGAUUGAAGGUCGCACCCAGCUCGUUUCCGCAGUAUUGCGAAAACAAGAAUAUUAUAGGUCGUUUUAUAUUUCUGGUCAAGGAAUAAAACGACCUAUUUUUUAUUUGAC [HS97 sRNA] | binds
GGGAAUAAUACUGAAUAAUAGCUAUAUUACGACAAAGGGCGUAAGCUGCCACAAGUGCUACUUAAUCGGGCGUAAGCUGCCAUAAGUGCUACUUAAUUAGGUGCAAGCUACCGUAAGUGCUGAAGAAAAGAUGCCUAACGGCAUCUUUUUUUUGCU [HS9 sRNA] | binds
